The data set deals with the molecule itself. In words: fluorescence polarisation. Background: Fluorescence polarisation rises when a labelled molecule tumbles more slowly, as on binding a larger partner.

B1: HaloTag-ABS3 (human talin-1 C-terminal actin-binding domain, residues 2,293 to 2,541, as a HaloTag fusion protein) (domain or fragment)
chain: TEWVDPEDPTVIAENELLGAAAAIEAAAKKLEQLKPRAKPKEADESLNFEEQILEAAKSIAAATSALVKAASAAQRELVAQGKVGAIPANALDDGQWSQGLISAARMVAAATNNLCEAANAAVQGHASQEKLISSAKQVAASTAQLLVACKVKADQDSEAMKRLQAAGNAVKRASDNLVKAAQKAAAFEEQENETVVVKEKMVGGIAQIIAAQEEMLRKERELEEARKKLAQIRQQQYKFLPSELRDEH
In the case of B1, the dissociation constant Kd (usually the equilibrium constant for the complex coming apart) turned out to be 1900 ± 200 nM.

These data come from article PMC8915792 (Proceedings of the National Academy of Sciences of the …, 2022).
